Molecular target: Y925F-FAK (nonphosphorylatable mutant of FAK/YCam) (human, UniProt Q05397 1-1052, Y925F)
Experiment: co-IP

Chain of Y925F-FAK (nonphosphorylatable mutant of FAK/YCam) (Q05397 whole entry Y925F): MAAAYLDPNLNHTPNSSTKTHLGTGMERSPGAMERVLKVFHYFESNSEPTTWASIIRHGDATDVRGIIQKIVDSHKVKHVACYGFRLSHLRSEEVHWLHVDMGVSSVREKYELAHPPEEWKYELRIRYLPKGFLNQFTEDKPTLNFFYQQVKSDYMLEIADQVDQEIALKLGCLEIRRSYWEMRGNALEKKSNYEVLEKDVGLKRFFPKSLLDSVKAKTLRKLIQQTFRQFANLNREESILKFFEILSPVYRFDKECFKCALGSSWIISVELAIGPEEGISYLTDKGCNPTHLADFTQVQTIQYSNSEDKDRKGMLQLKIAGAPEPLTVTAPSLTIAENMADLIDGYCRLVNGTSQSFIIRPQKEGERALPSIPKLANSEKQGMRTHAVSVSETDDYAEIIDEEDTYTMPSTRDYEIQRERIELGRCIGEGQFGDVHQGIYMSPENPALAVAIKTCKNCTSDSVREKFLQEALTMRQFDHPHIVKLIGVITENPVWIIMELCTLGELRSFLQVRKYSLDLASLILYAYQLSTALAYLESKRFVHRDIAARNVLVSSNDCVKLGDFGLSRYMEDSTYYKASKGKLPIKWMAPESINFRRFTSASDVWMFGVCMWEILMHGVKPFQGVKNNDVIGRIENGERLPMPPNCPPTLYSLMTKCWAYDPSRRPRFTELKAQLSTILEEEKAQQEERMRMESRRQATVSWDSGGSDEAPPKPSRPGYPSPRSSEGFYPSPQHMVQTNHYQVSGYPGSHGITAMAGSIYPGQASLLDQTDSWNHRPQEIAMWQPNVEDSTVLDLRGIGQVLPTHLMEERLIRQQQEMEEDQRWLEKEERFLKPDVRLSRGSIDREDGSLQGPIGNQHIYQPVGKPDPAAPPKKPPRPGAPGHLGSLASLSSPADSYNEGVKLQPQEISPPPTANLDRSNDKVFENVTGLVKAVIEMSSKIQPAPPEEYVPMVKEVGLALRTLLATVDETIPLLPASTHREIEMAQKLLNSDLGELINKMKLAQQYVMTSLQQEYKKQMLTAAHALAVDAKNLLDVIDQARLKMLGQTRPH

B1: paxillin (natural protein)
chain: not shown
With B1 the “fold change of co-precipitated paxillin against wild-type FAK or Y925E-FAK” value was 3 fold.
